Data published in patent publication US20250382622A1 (UNIVERSIT T BERN, published 2025).

Biological target: T1, human Claudin-3 (human, UniProt O15551 1-220)
T1 sequence: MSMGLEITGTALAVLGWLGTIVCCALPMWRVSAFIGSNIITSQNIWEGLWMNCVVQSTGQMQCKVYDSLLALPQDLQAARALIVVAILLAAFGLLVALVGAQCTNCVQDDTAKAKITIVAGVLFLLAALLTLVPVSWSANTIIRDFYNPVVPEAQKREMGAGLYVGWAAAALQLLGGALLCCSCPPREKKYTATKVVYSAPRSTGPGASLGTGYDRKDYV
Experiment: cell-based or functional assay

claudin-3/beta-actin ratio by western blot, human hepatocytes, 24 h, 1 nM antibody: ~45 % of control
claudin-3/beta-actin ratio by western blot, human hepatocytes, 24 h, 30 nM antibody: ~30 % of control
claudin-3/beta-actin ratio by western blot, human hepatocytes, 24 h, 100 nM antibody: ~10 % of control
B1: GalNAc functionalized UB-VS003 (antibody, mouse IgG2a, kappa, V domains shown)
VH: EVQLQQSGPELVKPGGSMKISCKASGYSFTGYTMNWVKQSHGKNLEWIGLINPYNDGTNYNQKFKGKATLTVDKSSSTAYMELLSLTSEDSAVYYCSKKGGGYGGTWFAYWGQGTLVTVSA
VL: DIVMSQSPSSLAVSVGEKVTMSCKSSPSLLYSNNQKNYLAWYQQKPGQSPKLLIYWASTRESGVPDRFTGSGSGTDFTLTISSVKAEDLAVYYCQQYYSFPYTFGGGTKLEIKR
modifications: reacted with 25 equivalents of DBCO-PEG4-NHS, then with 100 equivalents of Trebler GalNAc-Azide; modified residues and chain not stated
